In patent US6989260B2, “Human poly(ADP-ribose) polymerase 2 materials and methods” (ICOS Corporation, priority 1999, dated 2006):

System: hPARP2 poly(ADP-ribose) polymerase activity
Test: Poly(ADP-ribose) polymerase activity assay (32P-NAD+ incorporation, SDS-PAGE, autoradiography)
Assay type: biochemical, human
Conditions: 250 ng PARP1A/PARP2B or 25 ng FB-hPARP2, 10 min at room temperature, 2.5 μM unlabeled NAD+, E. coli Strain B DNA, gamma-[32P]-NAD+
Text: The PARP activity of hPARP2, or some substructure thereof, can be measured by the ability of that component to incorporate the ADP-ribose unit from NAD into polymers of ADP-ribose coupled to a protein substrate.
A fusion protein, designated PARP1A/PARP2B, containing aa 1–662 of hPARP1 (SEQ ID NO:25) fused upstream of aa 230–583 of hPARP2 (SEQ ID NO:2) was used in the measurement of hPARP2 poly(ADP-ribose) polymerase activity. PARP1A/PARP2B contained the DNA binding domain (aa 1–373 of SEQ ID NO:25) and automodification domain (aa 373–525 of SEQ ID NO:25) of hPARP1 and the putative catalytic domain of hPARP2 (aa […] of SEQ ID NO:2).
In addition to PARP1A/PARP2B, a full-length hPARP2 protein fused to a poly-His tag (FB-hPARP2) was constructed for use in the measurement of hPARP2 poly(ADP-ribose) polymerase activity. The construction of FB-hPARP2 was carried out as follows.
For poly(ADP-ribose) polymerase activity assays, reagents were obtained from Sigma, unless otherwise indicated. PARP1A/PARP2B (250 ng) or FB-hPARP2 (25 ng) protein was incubated for 10 min at room temperature in assay buffer (total volume of 20 μL) containing 100 mM Tris, pH 8.0, 1 mM MgCl2, 10% glycerol, 1.5 mM dithiothreitol (Boehringer Mannheim/Roche Molecular Biochemicals, Indianapolis, Ind.), 2.5 μM unlabeled NAD^+, 16.7 μg/mL E. coli Strain B DNA, and 0.33 μCi gamma-[^32P]-NAD^+ (NEN, Boston, Mass.). […]

Molecule	intrinsic poly(ADP-ribose) polymerase activity (ability to produce poly(ADP-ribose) polymers)
PARP1A/PARP2B: fusion protein containing aa 1–662 of hPARP1 fused upstream of aa 230–583 of hPARP2; His tag leader, Strep-tag (SEQ ID NO:47)	possessed intrinsic poly(ADP-ribose) polymerase activity
FB-hPARP2: full-length hPARP2 protein fused to a poly-His tag (SEQ ID NO:59) (protein, poly-His tag) MRGSHHHHHHDYDIPTTENLYFQGAMDPEFKGLRRPMAARRRRSTGGGRARALNESKRVNNGNTAPEDSSPAKKTRRCQRQESKKMPVAGGKANKDRTEDKQDGMPGRSWASKRVSESVKALLLKGKAPVDPECTAKVGKAHVYCEGNDVYDVMLNQTNLQFNNNKYYLIQLLEDDAQRNFSVWMRWGRVGKMGQHSLVACSGNLNKAKEIFQKKFLDKTKNNWEDREKFEKVPGKYDMLQMDYATNTQDEEETKKEESLKSPLKPESQLDLRVQELIKLICNVQAMEEMMMEMKYNTKKAPLGKLTVAQIKAGYQSLKKIEDCIRAGQHGRALMEACNEFYTRIPHDFGLRTPPLIRTQKELSEKIQLLEALGDIEIAIKLVKTELQSPEHPLDQHYRNLHCALRPLDHESYEFKVISQYLQSTHAPTHSDYTMTLLDLFEVEKDGEKEAFREDLHNRMLLWHGSRMSNWVGILSHGLRIAPPEAPITGYMFGKGIYFADMSSKSANYCFASRLKNTGLLLLSEVALGQCNELLEANPKAEGLLQGKHSTKGLGKMAPSSAHFVTLNGSTVPLGPASDTGILNPDGYTLNYNEYIVYNPNQVRMRYLLKVQFNFLQLW	possessed intrinsic poly(ADP-ribose) polymerase activity
